Test results: US8389575B2, “Control of enzymatic peracid generation” (E.I. du Pont de Nemours and Company, priority 2008, dated 2013)

Legend:
[1] = Dependence of specific activity on pH for hydrolysis of triacetin by CE-7 esterases/perhydrolases (cell extracts of E. coli KLP18 transformants); format: biochemical; conditions: 200 mM triacetin, 25° C.
Procedure: A cell extract of an E. coli transformant expressing perhydrolase from Thermotoga neapolitana (KLP18/pSW196), Thermotoga maritima MSB8 (KLP18/pSW207), Bacillus pumilus PS213 (KLP1S/pSW195), Bacillus subtilis BE1010 (KLP18/pSW189), Bacillus subtilis ATCC® 31954™ (KLP18/pSW194), or Bacillus licheniformis ATCC® 14580™ (KLP18/pSW191) was prepared by passing a suspension of cell paste (20 wt % wet cell weight) in 0.05 M potassium phosphate buffer (pH 7.0) containing dithiothreitol (1 mM) twice through a French press having a working pressure of 16,000 psi (˜110 MPa). The crude extract was then centrifuged at 20,000×g to remove cellular debris, producing a clarified cell extract that was assayed for total soluble protein (Bicinchoninic Acid Kit for Protein Determination, Sigma Aldrich catalog #BCA1-KT). A portion of the clarified Thermotoga maritima MSB8 or Thermotoga neapolitana perhydrolase-containing extract was additionally heated for 20 min at 75° C., followed immediately by cooling in an ice/water bath to 5° C. The resulting mixture was centrifuged to remove precipitated protein, and the supernatant collected and assayed for total soluble protein as before.
Reactions (10 mL total volume) containing triacetin (200 mM) and cell extract supernatant (prepared as described above) were run at 25° C. and at a pH between 4.5 and 10.0, using the buffers and buffer concentrations listed in Table 5. The concentration of extract total protein (with or without heat-treatment to denature and precipitate E. coli-derived protein) was chosen to produce an ca. 50 mM decrease in triacetin concentration over 30 min (typically from 0.025 mg/mL to 0.40 mg/mL of total extract protein, dependent on the perhydrolase). A control reaction for each reaction condition was run to determine the concentration of triacetin hydrolyzed in the absence of added extract protein. Samples (100 μL) were removed at predetermined times and immediately added to 297 μL of dd H2O and 3 μL of 6N HCL. The resulting solution was mixed, then filtered using a 30,000 NMWL filter (Millipore) using a microcentrifuge for 2 min at 12,000 rpm. An aliquot of the filtrate (100 μL) was added to 150 μL of 0.417 mM N,N-diethyl meta-toluamide (external standard) in acetonitrile, and the resulting solution analyzed for triacetin by HPLC using a Supelco Discovery C8 column (25 cm×4.0 mm, 5 um; Supelco #59353-U40) and an isocratic mobile phase of 40% acetonitrile/60% distilled water at a flow rate of 1 mL/min. Triacetin was measured by UV detection at 225 nm.

[2] = Peracetic acid production by perhydrolases, control by initial reaction pH in sodium citrate buffer; format: biochemical; conditions: triacetin 100 mM, 0.050 mg/mL extract total protein, 25° C.
Procedure: A cell extract of a transformant expressing perhydrolase from Bacillus pumilus PS213 (KLP18/pSW195), Thermotoga maritima MSB8 (KLP18/pSW207), Thermotoga neapolitana (KLP18/pSW196), or Bacillus subtilis ATCC® 31954™ (KLP18/pSW194) was prepared by passing a suspension of cell paste (20 wt % wet cell weight) in 0.05 M potassium phosphate buffer (pH 7.0) containing dithiothreitol (1 mM) twice through a French press having a working pressure of 16,000 psi (˜110 MPa). The crude extract was then centrifuged at 20,000×g to remove cellular debris, producing a clarified cell extract that was assayed for total soluble protein (Bicinchoninic Acid Kit for Protein Determination, Sigma Aldrich catalog #BCA1-KT). The supernatant was frozen in dry ice and stored at −80° C.
Reactions (10 mL total volume) containing triacetin, hydrogen peroxide and centrifuged cell extract supernatant (prepared as described above) in 50 mM sodium citrate buffer (initial pH 7.2 or 6.5) were run at 25° C. A control reaction for each reaction condition was run to determine the concentration of peracetic acid produced by chemical perhydrolysis of triacetin by hydrogen peroxide in the absence of added extract protein (data not shown). Determination of the concentration of peracetic acid in the reaction mixtures was performed according to the method described by Karst et al., supra.

[3] = initial pH 6.5, sodium citrate 50 mM, H2O2 100 mM
[4] = initial pH 6.5, sodium citrate 50 mM, H2O2 250 mM
[5] = initial pH 7.2, sodium citrate 50 mM, H2O2 100 mM
[6] = initial pH 7.2, sodium citrate 50 mM, H2O2 250 mM

B1: B. pumilus PS213: acetyl xylan esterase with perhydrolase activity from Bacillus pumilus PS213 (SEQ ID NO: 10), cell extract of E. coli KLP18/pSW195 (protein, listed as Bacillus pumilis)
chain: MQLFDLSLEELKKYKPKKTARPDFSDFWKKSLEELRQVEAEPTLESYDYPVKGVKVYRLTYQSFGHSKIEGFYAVPDQTGPHPALVRFHGYNASYDGGIHDIVNWALHGYATFGMLVRGQGGSEDTSVTPGGHALGWMTKGILSKDTYYYRGVYLDAVRALEVIQSFPEVDEHRIGVIGGSQGGALAIAAAALSDIPKVVVADYPYLSNFERAVDVALEQPYLEINSYFRRNSDPKVEEKAFETLSYFDLINLAGWVKQPTLMAIGLIDKITPPSTVFAAYNHLETDKDLKVYRYFGHEFIPAFQTEKLSFLQKHLLLST
[1]; pH 5.0, sodium acetate 0.15 M
  specific activity (mmol triacetin/min/mg total extract protein): 1.8 mmol triacetin/min/mg total extract protein
[1]; pH 5.5, sodium acetate 0.15 M
  specific activity (mmol triacetin/min/mg total extract protein): 3.5 mmol triacetin/min/mg total extract protein
[1]; pH 6.0, sodium citrate 0.15 M
  specific activity (mmol triacetin/min/mg total extract protein): 4.2 mmol triacetin/min/mg total extract protein
[1]; pH 6.5, sodium citrate 0.15 M
  specific activity (mmol triacetin/min/mg total extract protein): 11.6 mmol triacetin/min/mg total extract protein
[1]; pH 7.0, potassium phosphate 0.15 M
  specific activity (mmol triacetin/min/mg total extract protein): 30.5 mmol triacetin/min/mg total extract protein
[1]; pH 7.5, potassium phosphate 0.15 M
  specific activity (mmol triacetin/min/mg total extract protein): 33.7 mmol triacetin/min/mg total extract protein
[1]; pH 8.0, potassium phosphate 0.20 M
  specific activity (mmol triacetin/min/mg total extract protein): 53.9 mmol triacetin/min/mg total extract protein
[1]; pH 8.5, Tris(hydroxymethyl)aminomethane 0.20 M
  specific activity (mmol triacetin/min/mg total extract protein): 72.4 mmol triacetin/min/mg total extract protein
[1]; pH 9.0, Tris(hydroxymethyl)aminomethane 0.20 M
  specific activity (mmol triacetin/min/mg total extract protein): 80.4 mmol triacetin/min/mg total extract protein
[1]; pH 9.5, glycine 0.20 M
  specific activity (mmol triacetin/min/mg total extract protein): 71.1 mmol triacetin/min/mg total extract protein
[2]; [3]
  PAA, 1 min (ppm): 170 ppm
  PAA, 5 min (ppm): 310 ppm
  PAA, 30 min (ppm): 830 ppm
[2]; [4]
  PAA, 1 min (ppm): 281 ppm
  PAA, 5 min (ppm): 652 ppm
  PAA, 30 min (ppm): 1984 ppm
[2]; [5]
  PAA, 1 min (ppm): 160 ppm
  PAA, 5 min (ppm): 322 ppm
  PAA, 30 min (ppm): 1010 ppm
[2]; [6]
  PAA, 1 min (ppm): 465 ppm
  PAA, 5 min (ppm): 1170 ppm
  PAA, 30 min (ppm): 2525 ppm
